Data as given in patent US20240254227A1 (Alector, published 2024).

T1: murine CD300LB stably expressed on Jurkat cells (mouse, UniProt Q3U497 18-209)
T1 construct: also called muCD300LB; mouse CD300LB
T1 sequence: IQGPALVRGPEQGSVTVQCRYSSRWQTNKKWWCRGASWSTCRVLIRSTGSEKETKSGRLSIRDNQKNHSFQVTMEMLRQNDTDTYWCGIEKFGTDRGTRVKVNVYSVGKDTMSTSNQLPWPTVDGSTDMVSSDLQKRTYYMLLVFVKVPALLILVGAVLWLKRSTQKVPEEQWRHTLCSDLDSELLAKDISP

T2: human CD300C-Fc (human)
T2 construct: hIgG1-Fc fusion; the entry is the whole fusion chain
T2 chain: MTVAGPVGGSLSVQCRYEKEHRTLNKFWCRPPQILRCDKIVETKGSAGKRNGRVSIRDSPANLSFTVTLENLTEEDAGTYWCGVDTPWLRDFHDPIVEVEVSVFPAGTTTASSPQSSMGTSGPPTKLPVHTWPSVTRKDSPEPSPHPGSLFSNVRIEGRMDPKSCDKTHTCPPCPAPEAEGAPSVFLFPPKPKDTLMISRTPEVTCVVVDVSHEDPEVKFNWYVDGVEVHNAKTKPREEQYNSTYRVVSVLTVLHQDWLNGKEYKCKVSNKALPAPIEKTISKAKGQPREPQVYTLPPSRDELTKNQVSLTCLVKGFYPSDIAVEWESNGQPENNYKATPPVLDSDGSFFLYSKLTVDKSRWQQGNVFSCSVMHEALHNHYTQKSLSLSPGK

T3: murine CD300LB-Fc (mouse)
T3 construct: mouse IgG2a-Fc fusion (R&D Systems); the entry is the whole fusion chain; also called mCD300LB; Mouse CD300LB-Fc
T3 chain: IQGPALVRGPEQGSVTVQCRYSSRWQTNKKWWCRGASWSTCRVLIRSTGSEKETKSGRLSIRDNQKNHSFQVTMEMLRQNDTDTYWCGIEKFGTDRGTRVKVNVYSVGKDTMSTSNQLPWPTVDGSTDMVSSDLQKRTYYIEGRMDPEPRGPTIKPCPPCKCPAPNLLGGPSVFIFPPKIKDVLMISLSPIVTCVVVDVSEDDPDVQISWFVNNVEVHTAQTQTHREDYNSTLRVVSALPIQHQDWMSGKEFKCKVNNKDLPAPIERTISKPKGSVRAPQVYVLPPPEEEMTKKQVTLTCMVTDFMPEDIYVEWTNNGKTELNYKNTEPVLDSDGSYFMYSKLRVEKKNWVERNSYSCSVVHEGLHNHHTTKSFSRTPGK

T4: murine CD300D-Fc (mouse)
T4 construct: mouse IgG2a-Fc fusion (R&D Systems); the entry is the whole fusion chain; also called mCD300D; Mouse CD300D-Fc
T4 chain: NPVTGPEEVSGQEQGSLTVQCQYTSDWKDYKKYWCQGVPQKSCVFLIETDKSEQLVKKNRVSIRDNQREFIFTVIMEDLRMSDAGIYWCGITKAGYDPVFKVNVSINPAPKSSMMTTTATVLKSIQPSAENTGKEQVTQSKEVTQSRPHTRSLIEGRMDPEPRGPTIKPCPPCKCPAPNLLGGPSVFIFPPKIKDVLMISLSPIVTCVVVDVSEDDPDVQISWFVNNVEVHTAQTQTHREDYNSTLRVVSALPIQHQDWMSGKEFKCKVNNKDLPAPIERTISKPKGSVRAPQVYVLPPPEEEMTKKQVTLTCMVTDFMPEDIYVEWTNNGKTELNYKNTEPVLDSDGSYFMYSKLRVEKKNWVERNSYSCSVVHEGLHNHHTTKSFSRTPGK


Tests used:
[1] = molecular target: T1, murine CD300LB stably expressed on …; assay: flow cytometry, stable Jurkat cells
[2] = molecular target: T2, human CD300C-Fc; assay: SPR (Carterra LSA), antibody immobilised
Method in brief: (§1)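 Mouse anti-CD300LB IgG1 antibodies were amine-coupled in a 96-spot array on an HC200M chip; Fc-fused CD300 ectodomains (human on hIgG1-Fc) flowed over as analytes at 300 nM or 600 nM in HBS-TE with 0.5 mg/ml BSA, injected in series without regeneration, with kinetics fitted by high-throughput analysis.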

[3] = molecular target: T3, murine CD300LB-Fc; assay: SPR (Carterra LSA), antibody immobilised, Fc fusion at 300 or 600 nM
Method: Binding of mouse anti-CD300LB IgG1 antibodies of the present disclosure to human and murine CD300 orthologs were evaluated by surface plasmon resonance (SPR) using a Carterra LSA instrument (Carterra, Salt Lake City, UT). […] A HC200M sensor chip (Carterra) was activated using the single channel flow cell with a 7-minute injection of a 1:1:1 mixture of 100 mM MES pH 5.5, 100 mM sulfo-NHS, 400 mM EDC (all reconstituted in MES pH 5.5; 100 μL of each mixed in vial immediately before running assay). After switching to the multi-channel array flow cell, the antibodies were injected over the activated chip in a 96-spot array for 10 minutes. The remaining unconjugated active groups on the chip were then blocked by injecting 1M Ethanolamine pH 8.5 (Carterra) for 7 minutes using the single channel flow cell. After priming with running buffer (HBS-TE, Carterra) with 0.5 mg/ml BSA (Sigma), the immobilized anti-CD300LB antibodies were tested for their ability to bind human and mouse recombinant CD300LB extracellular domains. Human CD300 family members and mouse CD300A were hIgG1-Fc fusions, while mouse CD300LB, mouse CD300C, mouse CD300D, and mouse CD300E were mouse IgG2a-Fc fusions (R&D Systems). Binding was assessed by injecting each analyte over the entire antibody array using the single channel flow cell. CD300 analytes were diluted to 300 nM or 600 nM in running buffer and injected in series without regeneration. Two or three buffer blanks were run between each mouse or human ortholog, respectively. Data were processed and analyzed using NextGenKIT high-throughput kinetics analysis software (Carterra).
Results of anti-CD300LB antibody binding to human CD300 family members is provided below in Table 7.

[4] = molecular target: T4, murine CD300D-Fc; assay: SPR (Carterra LSA), antibody immobilised
Method in brief: as §1

Binder | binding result [2] | binding result [4] | other results
anti-CD300LB antibody CD-02 (antibody, V domains shown) VH: QVQLQQPGAELVRPGSSVKLSCQASGYTFTNYWMHWVRQRPIQGLEWIGNIDPSDSETHYNQKFKDRATLTVDKSSSTAYMQLSSLTSEDSAVYYCARSGVYDDEGGDYWGQGTTLTVSS VL: ENVLTQSPAIMSASPGEKVTMTCSASSSVSYIHWYQQKSSTSPKLWIYDTSKLASGVPGRFSGSGSGNSYSLTISSMETEDVATYYCFQGSGYPLTFGAGTKLELK | no binding (tested: 300 nM or 600 nM) |  | binding result [1]: no binding (tested: 10 ug/mL)
anti-CD300LB antibody CD-03 (antibody, V domains shown) VH: EVQLQQSGPELVKPGASVKISCKASGYTFTDYYINWVRQSHGKSLECIGDINPNNGGTNYNQKFKGKATLTVDRSSNTAYMEFRSLTFDDSALYYCAAEGAYWGQGTLVTVSA VL: not shown | no binding (tested: 300 nM or 600 nM) |  | 
anti-CD300LB antibody CD-01 (antibody, V domains shown) VH: RVQLQQSGAELVRPGASVTLSCKASGFTFTDFEMHWVKKTPVHGLEWIGAIDPESGNTAYNQKFRGKATLTADKSSSTAYMELRYLTSEDSAVYYCTPLISGADYWGQGTTLTVSS VL: DVVMTQSPLSLPVSLGDQASISCRSSQSLVHSDGNTYLYWYLQKPGQSPKLLIYKVSNRFSGVPDRFSGSGSGTDFTFKISRVGAEDLGVYFCSQSTHVPWTFGGGTKLEII | no binding (tested: 300 nM or 600 nM) |  | SPR binding (control subtracted) [3]: 29
anti-CD300LB antibody CD-18 (antibody, V domains shown) VH: DVQLQESGPDLVKPSQSLSLTCTVTGYSITSGYSWHWIRQFPDNKLEWMGYILSRGDTNFNPSLKSRISITRSTSNNQFFLHFNSVTTEDTATYYCARDFFDYWGQGTTLTVSS VL: DVLMTQTPLSLPVSLGDQASISCRSSQSIVHSNGNTYLEWYLQKPGQSPKLLIYKVSDRFSGVPDRFSGSGSGTDFTLKISRVEAEDLGVYFCFQGSHVPYTFGGGTKLEIK |  | no binding (tested: 300 nM or 600 nM) | 
anti-CD300LB antibody CD-05 (antibody, V domains shown) VH: QVQLVQSGAEVKKPGASVKVSCKASGYTFSRYYINWVRQAPGQGLEWMGWINPNSGGTNYAQKFQGRVTMTRDTSTSTVYMELSSLRSEDTAVYYCTTDQLRFGKTGPYYGMDVWGQGTTVTVSS VL: DIQMTQSPSSLSASVGDRVTITCRASQNIGTYLNWYQQKPGKAPKLLIYAASSLQSGVPSRFSGSGSGTDFTLTISSLQPEDFATYYCQQSYSDTLTFGGGTKVEIK | no binding (tested: 300 nM or 600 nM) |  | 
anti-CD300LB antibody CD-11 (antibody, V domains shown) VH: QIQLVQSGPEVKKPGETVKISCKASGYTLTDYSMHWVMQTPGTGLKWMAWMNTETGEPTYADDFKGRFAFSLETSAGTAYLQIDNLKNEDTATYFCATYGKSYGMKYWGQGTSVTVSS VL: DIVLTQSPPSLAVSLGQRATISCRATKSVSPYLHWYQQTPGQPPKLLIYLASNLDSGVPARFSGSGSGTDFTLNIHPVEEEDAATYYCQHNKELPPTFGGGTRLEIK |  | no binding (tested: 300 nM or 600 nM) | 
anti-CD300LB antibody CD-12 (antibody, V domains shown) VH: QIQLVQSGPELKKPGETVKISCKASGYTFTDYSMHWVRQAPGKGLKWMAWINTETGEATHADDFKGRFDFSLDTSASTAYLQIKNLKNEDTGIYFCVCYGSSYGMDYWGQGTSVTVSS VL: DIVLTQSPASLPVSLGQRATISCRASKSVRTSGASYMHWYQQKPGQPPKLLIYLASNLKSGVPTRFSGSGSGTDFTLNIHPVEEEDAATYYCQHNREVPPTFGGGTKLEIK |  | no binding (tested: 300 nM or 600 nM) | 
anti-CD300LB antibody CD-15 (antibody, V domains shown) VH: QIQLVQSGPELKKPGETVKISCQVSGYTFTDYSMHWLKQAPGKGLKWMAWINTETGESTYTDEFKGRFVFSLETSVRTAYLKINNLKNEDTATYFCGTYGSSYGMAYWGQGTSVTVSS VL: DIVLTQSPASLPVSLGQRATISCRASKSVSTSGSSYLHWYQQKPGQPPKLLIYLASKLESGVPARFRGSGSGTDFTLNIHPVEEEDAATYYCQHNREVPPTFGGGTKLEIK |  | no binding (tested: 300 nM or 600 nM) | 
anti-CD300LB antibody CD-17 (antibody, V domains shown) VH: QIQLVQSGPELKKPGETVKISCKASGYTLTDYSMHWVKQAPGKGLKWMGWINTETGEPRYGDDFKGRFAFSLETSASSAYLQINNLKNDDTATYFCATYGRSYGMDFWGQGTSVTVSS VL: DIVLTQSPASLAVSLGQRATISCRASKSVSPSGHSYMHWYQQKPGQPPKLLIYLASNLKSGVPARFSGSGSGTDFTLNIHPVEEGDAATYYCQHNRELPPTFGGGSKLEIK |  | no binding (tested: 300 nM or 600 nM) | 
